Substrate in this data set: C=C(C)CCO[P@@](=O)(O)OP(=O)(O)O
Put plainly: Turnover rate of heterotetrameric Mentha GPP synthase (comparison). The format is biochemical. The settings on record: other: assuming two functional active sites.

B1: Mentha GPP synthase, heterotetrameric (dimer of heterodimers) (Mentha x piperita) (protein)
chain: MSALVNPVAKWPQTIGVKDVHGGRRRRSRSTLFQSHPLRTEMPFSLYFSSPLKAPATFSVSAVYTKEGSEIRDKDPAPSTSPAFDFDGYMLRKAKSVNKALEAAVQMKEPLKIHESMRYSLLAGGKRVRPMLCIAACELVGGDESTAMPAACAVEMIHTMSLMHDDLPCMDNDDLRRGKPTNHMAFGESVAVLAGDALLSFAFEHVAAATKGAPPERIVRVLGELAVSIGSEGLVAGQVVDVCSEGMAEVGLDHLEFIHHHKTAALLQGSVVLGAILGGGKEEEVAKLRKFANCIGLLFQVVDDILDVTKSSKELGKTAGKDLVADKTTYPKLIGVEKSKEFADRLNREAQEQLLHFHPHRAAPLIALANYIAYRDN
notes: probably E. coli, C-terminal His8 tag, transit peptide deleted
As for B1, the turnover number (kcat) came to 2.4 s⁻¹.
